Molecular target: T1, VZV gH (VZV (strain ), UniProt Q775J3 18-841)
T1 sequence: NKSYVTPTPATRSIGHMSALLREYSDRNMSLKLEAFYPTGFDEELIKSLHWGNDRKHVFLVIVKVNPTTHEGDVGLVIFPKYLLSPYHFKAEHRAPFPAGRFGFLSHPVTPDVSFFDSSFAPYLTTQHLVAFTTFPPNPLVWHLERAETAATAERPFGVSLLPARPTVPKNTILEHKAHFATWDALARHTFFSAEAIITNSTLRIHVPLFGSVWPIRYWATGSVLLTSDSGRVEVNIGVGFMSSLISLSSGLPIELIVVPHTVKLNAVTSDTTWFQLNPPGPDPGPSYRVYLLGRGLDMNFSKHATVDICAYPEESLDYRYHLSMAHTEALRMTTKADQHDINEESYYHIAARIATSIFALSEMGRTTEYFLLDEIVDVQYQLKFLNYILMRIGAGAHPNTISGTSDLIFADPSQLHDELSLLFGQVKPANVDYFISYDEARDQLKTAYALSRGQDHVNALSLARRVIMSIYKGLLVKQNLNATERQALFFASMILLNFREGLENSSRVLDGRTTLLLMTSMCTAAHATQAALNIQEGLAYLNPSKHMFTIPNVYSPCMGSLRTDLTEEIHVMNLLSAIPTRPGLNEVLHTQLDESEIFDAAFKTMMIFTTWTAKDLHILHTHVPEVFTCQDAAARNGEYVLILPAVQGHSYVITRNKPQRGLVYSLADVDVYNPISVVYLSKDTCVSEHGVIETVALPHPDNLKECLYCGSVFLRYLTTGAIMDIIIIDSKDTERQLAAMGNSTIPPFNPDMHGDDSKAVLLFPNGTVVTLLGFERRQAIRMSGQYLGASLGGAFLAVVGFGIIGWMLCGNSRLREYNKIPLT
Assay: immunofluorescence with antibody SG3 on transfected BHK-V cells

B1: VZV gL (other)
chain: LHLQDDTPLFFGAKPLSDVSLIITEPCVSSVYEAWDYAAPPVSNLSEALSGIVVKTKCPVPEVILWFKDKQMAYWTNPYVTLKGLTQSVGEEHKSGDIRDALLDALSGVWVDSTPSSTNIPENGCVWGADRLFQRVCQ
Question: Does B1 bind?
Answer: binds
